Like-named read-outs stand apart in the source and are kept apart here.
Experiments:
Human CD1d/β2M [1] = biological target: T1, Human CD1d/β2M (human, UniProt P15813 20-301; P61769 21-119); assay: SPR, transfection supernatant
T1 construct: also called hCD1d; recombinant human CD1d

Human CD1d/β2M [2] = biological target: T1, Human CD1d/β2M; assay: SPR, transfection supernatant; remark: listed apart in the source

Row | Binder | Kd (Human CD1d/β2M [1]) [nM] | also measured
1 | 401.11.38 (antibody, name in Kabat numbering, V domains shown) VH: QVQLVGSGGGLVKPGRSLRLSCAASGFTFDDYAMHWVRQAPGKGLEWVATIIWNSAIIGYADSVKGRFIVSRDNAKNSLYLQMNSLRAEDMALYYCAKSMCSSSGCPDGYFDSWGQGTLVTVSS VL: DIQMTQSPSSVSASVGDRVTITCRASQHISSWLAWYQQKPGKAPNLLIYAASSLQSGVSSRFSGSGSGTDFTLTISSLQPEDFATYYCQQANRFPLTFGGGTKLEIKR |  | binding result (Human CD1d/β2M [1]): no binding
2 | 401.11.44 (antibody, name in Kabat numbering, V domains shown) VH: QVQLVGSGGGLVKPGRSLRLSCAASGFTFDDYAMHWVRQAPGKGLEWVATIIWNSAIIGYADSVKGRFIVSRDNAKNSLYLQMNSLRAEDMALYYCAKDKCSSSGCPDGYFDSWGQGTLVTVSS VL: DIQMTQSPSSVSASVGDRVTITCRASQHISSWLAWYQQKPGKAPNLLIYAASSLQSGVSSRFSGSGSGTDFTLTISSLQPEDFATYYCQQANRFPLTFGGGTKLEIKR | 0.431 | 
3 | 401.11.45 (antibody, name in Kabat numbering, V domains shown) VH: QVQLVGSGGGLVKPGRSLRLSCAASGFTFDDYAMHWVRQAPGKGLEWVATIIWNSAIIGYADSVKGRFIVSRDNAKNSLYLQMNSLRAEDMALYYCAKDRCSSSGCPDGYFDSWGQGTLVTVSS VL: DIQMTQSPSSVSASVGDRVTITCRASQHISSWLAWYQQKPGKAPNLLIYAASSLQSGVSSRFSGSGSGTDFTLTISSLQPEDFATYYCQQANRFPLTFGGGTKLEIKR | 0.249 | 
4 | 401.11.46 (antibody, name in Kabat numbering, V domains shown) VH: QVQLVGSGGGLVKPGRSLRLSCAASGFTFDDYAMHWVRQAPGKGLEWVATIIWNSAIIGYADSVKGRFIVSRDNAKNSLYLQMNSLRAEDMALYYCAKDFCSSSGCPDGYFDSWGQGTLVTVSS VL: DIQMTQSPSSVSASVGDRVTITCRASQHISSWLAWYQQKPGKAPNLLIYAASSLQSGVSSRFSGSGSGTDFTLTISSLQPEDFATYYCQQANRFPLTFGGGTKLEIKR | 0.303 | 
5 | 401.11.49 (antibody, name in Kabat numbering, V domains shown) VH: QVQLVGSGGGLVKPGRSLRLSCAASGFTFDDYAMHWVRQAPGKGLEWVATIIWNSAIIGYADSVKGRFIVSRDNAKNSLYLQMNSLRAEDMALYYCAKDSCSSSGCPDGYFDSWGQGTLVTVSS VL: DIQMTQSPSSVSASVGDRVTITCRASQHISSWLAWYQQKPGKAPNLLIYAASSLQSGVSSRFSGSGSGTDFTLTISSLQPEDFATYYCQQANRFPLTFGGGTKLEIKR | 0.401 | 
6 | 401.11.50 (antibody, name in Kabat numbering, V domains shown) VH: QVQLVGSGGGLVKPGRSLRLSCAASGFTFDDYAMHWVRQAPGKGLEWVATIIWNSAIIGYADSVKGRFIVSRDNAKNSLYLQMNSLRAEDMALYYCAKDGCSSSGCPDGYFDSWGQGTLVTVSS VL: DIQMTQSPSSVSASVGDRVTITCRASQHISSWLAWYQQKPGKAPNLLIYAASSLQSGVSSRFSGSGSGTDFTLTISSLQPEDFATYYCQQANRFPLTFGGGTKLEIKR | 0.187 | 
7 | 401.11.61 (antibody, name in Kabat numbering, V domains shown) VH: QVQLVGSGGGLVKPGRSLRLSCAASGFTFDDYAMHWVRQAPGKGLEWVATIIWNSAIIGYADSVKGRFIVSRDNAKNSLYLQMNSLRAEDMALYYCAKDMCTSSGCPDGYFDSWGQGTLVTVSS VL: DIQMTQSPSSVSASVGDRVTITCRASQHISSWLAWYQQKPGKAPNLLIYAASSLQSGVSSRFSGSGSGTDFTLTISSLQPEDFATYYCQQANRFPLTFGGGTKLEIKR | 0.242 | 
8 | 401.11.63 (antibody, name in Kabat numbering, V domains shown) VH: QVQLVGSGGGLVKPGRSLRLSCAASGFTFDDYAMHWVRQAPGKGLEWVATIIWNSAIIGYADSVKGRFIVSRDNAKNSLYLQMNSLRAEDMALYYCAKDMCLSSGCPDGYFDSWGQGTLVTVSS VL: DIQMTQSPSSVSASVGDRVTITCRASQHISSWLAWYQQKPGKAPNLLIYAASSLQSGVSSRFSGSGSGTDFTLTISSLQPEDFATYYCQQANRFPLTFGGGTKLEIKR | 0.189 | 
9 | 401.11.64 (antibody, name in Kabat numbering, V domains shown) VH: QVQLVGSGGGLVKPGRSLRLSCAASGFTFDDYAMHWVRQAPGKGLEWVATIIWNSAIIGYADSVKGRFIVSRDNAKNSLYLQMNSLRAEDMALYYCAKDMCVSSGCPDGYFDSWGQGTLVTVSS VL: DIQMTQSPSSVSASVGDRVTITCRASQHISSWLAWYQQKPGKAPNLLIYAASSLQSGVSSRFSGSGSGTDFTLTISSLQPEDFATYYCQQANRFPLTFGGGTKLEIKR | 0.23 | 
10 | 401.11.65 (antibody, name in Kabat numbering, V domains shown) VH: QVQLVGSGGGLVKPGRSLRLSCAASGFTFDDYAMHWVRQAPGKGLEWVATIIWNSAIIGYADSVKGRFIVSRDNAKNSLYLQMNSLRAEDMALYYCAKDMCKSSGCPDGYFDSWGQGTLVTVSS VL: DIQMTQSPSSVSASVGDRVTITCRASQHISSWLAWYQQKPGKAPNLLIYAASSLQSGVSSRFSGSGSGTDFTLTISSLQPEDFATYYCQQANRFPLTFGGGTKLEIKR | 1.67 | 
11 | 401.11.66 (antibody, name in Kabat numbering, V domains shown) VH: QVQLVGSGGGLVKPGRSLRLSCAASGFTFDDYAMHWVRQAPGKGLEWVATIIWNSAIIGYADSVKGRFIVSRDNAKNSLYLQMNSLRAEDMALYYCAKDMCRSSGCPDGYFDSWGQGTLVTVSS VL: DIQMTQSPSSVSASVGDRVTITCRASQHISSWLAWYQQKPGKAPNLLIYAASSLQSGVSSRFSGSGSGTDFTLTISSLQPEDFATYYCQQANRFPLTFGGGTKLEIKR | 0.156 | 
12 | 401.11.67 (antibody, name in Kabat numbering, V domains shown) VH: QVQLVGSGGGLVKPGRSLRLSCAASGFTFDDYAMHWVRQAPGKGLEWVATIIWNSAIIGYADSVKGRFIVSRDNAKNSLYLQMNSLRAEDMALYYCAKDMCYSSGCPDGYFDSWGQGTLVTVSS VL: DIQMTQSPSSVSASVGDRVTITCRASQHISSWLAWYQQKPGKAPNLLIYAASSLQSGVSSRFSGSGSGTDFTLTISSLQPEDFATYYCQQANRFPLTFGGGTKLEIKR | 0.0485 | 
13 | 401.11.68 (antibody, name in Kabat numbering, V domains shown) VH: QVQLVGSGGGLVKPGRSLRLSCAASGFTFDDYAMHWVRQAPGKGLEWVATIIWNSAIIGYADSVKGRFIVSRDNAKNSLYLQMNSLRAEDMALYYCAKDMCGSSGCPDGYFDSWGQGTLVTVSS VL: DIQMTQSPSSVSASVGDRVTITCRASQHISSWLAWYQQKPGKAPNLLIYAASSLQSGVSSRFSGSGSGTDFTLTISSLQPEDFATYYCQQANRFPLTFGGGTKLEIKR | 1.17 | 
14 | 401.11.69 (antibody, name in Kabat numbering, V domains shown) VH: QVQLVGSGGGLVKPGRSLRLSCAASGFTFDDYAMHWVRQAPGKGLEWVATIIWNSAIIGYADSVKGRFIVSRDNAKNSLYLQMNSLRAEDMALYYCAKDMCSDSGCPDGYFDSWGQGTLVTVSS VL: DIQMTQSPSSVSASVGDRVTITCRASQHISSWLAWYQQKPGKAPNLLIYAASSLQSGVSSRFSGSGSGTDFTLTISSLQPEDFATYYCQQANRFPLTFGGGTKLEIKR | 0.144 | 
15 | 401.11.70 (antibody, name in Kabat numbering, V domains shown) VH: QVQLVGSGGGLVKPGRSLRLSCAASGFTFDDYAMHWVRQAPGKGLEWVATIIWNSAIIGYADSVKGRFIVSRDNAKNSLYLQMNSLRAEDMALYYCAKDMCSTSGCPDGYFDSWGQGTLVTVSS VL: DIQMTQSPSSVSASVGDRVTITCRASQHISSWLAWYQQKPGKAPNLLIYAASSLQSGVSSRFSGSGSGTDFTLTISSLQPEDFATYYCQQANRFPLTFGGGTKLEIKR | 0.549 | 
16 | 401.11.71 (antibody, name in Kabat numbering, V domains shown) VH: QVQLVGSGGGLVKPGRSLRLSCAASGFTFDDYAMHWVRQAPGKGLEWVATIIWNSAIIGYADSVKGRFIVSRDNAKNSLYLQMNSLRAEDMALYYCAKDMCSWSGCPDGYFDSWGQGTLVTVSS VL: DIQMTQSPSSVSASVGDRVTITCRASQHISSWLAWYQQKPGKAPNLLIYAASSLQSGVSSRFSGSGSGTDFTLTISSLQPEDFATYYCQQANRFPLTFGGGTKLEIKR | < 0.01 | 
17 | 401.11.72 (antibody, name in Kabat numbering, V domains shown) VH: QVQLVGSGGGLVKPGRSLRLSCAASGFTFDDYAMHWVRQAPGKGLEWVATIIWNSAIIGYADSVKGRFIVSRDNAKNSLYLQMNSLRAEDMALYYCAKDMCSLSGCPDGYFDSWGQGTLVTVSS VL: DIQMTQSPSSVSASVGDRVTITCRASQHISSWLAWYQQKPGKAPNLLIYAASSLQSGVSSRFSGSGSGTDFTLTISSLQPEDFATYYCQQANRFPLTFGGGTKLEIKR | 0.649 | 
18 | 401.11.73 (antibody, name in Kabat numbering, V domains shown) VH: QVQLVGSGGGLVKPGRSLRLSCAASGFTFDDYAMHWVRQAPGKGLEWVATIIWNSAIIGYADSVKGRFIVSRDNAKNSLYLQMNSLRAEDMALYYCAKDMCSVSGCPDGYFDSWGQGTLVTVSS VL: DIQMTQSPSSVSASVGDRVTITCRASQHISSWLAWYQQKPGKAPNLLIYAASSLQSGVSSRFSGSGSGTDFTLTISSLQPEDFATYYCQQANRFPLTFGGGTKLEIKR | 0.527 | 
19 | 401.11.74 (antibody, name in Kabat numbering, V domains shown) VH: QVQLVGSGGGLVKPGRSLRLSCAASGFTFDDYAMHWVRQAPGKGLEWVATIIWNSAIIGYADSVKGRFIVSRDNAKNSLYLQMNSLRAEDMALYYCAKDMCSKSGCPDGYFDSWGQGTLVTVSS VL: DIQMTQSPSSVSASVGDRVTITCRASQHISSWLAWYQQKPGKAPNLLIYAASSLQSGVSSRFSGSGSGTDFTLTISSLQPEDFATYYCQQANRFPLTFGGGTKLEIKR | 0.0933 | 
20 | 401.11.75 (antibody, name in Kabat numbering, V domains shown) VH: QVQLVGSGGGLVKPGRSLRLSCAASGFTFDDYAMHWVRQAPGKGLEWVATIIWNSAIIGYADSVKGRFIVSRDNAKNSLYLQMNSLRAEDMALYYCAKDMCSRSGCPDGYFDSWGQGTLVTVSS VL: DIQMTQSPSSVSASVGDRVTITCRASQHISSWLAWYQQKPGKAPNLLIYAASSLQSGVSSRFSGSGSGTDFTLTISSLQPEDFATYYCQQANRFPLTFGGGTKLEIKR |  | binding result (Human CD1d/β2M [1]): no binding
21 | 401.11.139 (antibody, name in Kabat numbering, V domains shown) VH: QVQLVGSGGGLVKPGRSLRLSCAASGFTFDDYAMHWVRQAPGKGLEWVATIIWNSAIIGYADSVKGRFIVSRDNAKNSLYLQMNSLRAEDMALYYCAKDMCSSSGCPDGYFDGWGQGTLVTVSS VL: DIQMTQSPSSVSASVGDRVTITCRASQHISSWLAWYQQKPGKAPNLLIYAASSLQSGVSSRFSGSGSGTDFTLTISSLQPEDFATYYCQQANRFPLTFGGGTKLEIKR |  | Kd (Human CD1d/β2M [2]): 0.594 nM
